These results are taken from patent US20060263802A1.

Test [1] has as its target linear peptide … (rabies virus strain ERA). Description: PEPSCAN ELISA, linear peptide, antibody 10 µg/ml.
For test [2] the target is unchanged. Description: PEPSCAN ELISA, linear peptide, 10 µg/ml. A general note: ELISA stands for enzyme-linked immunosorbent assay.

B1: human monoclonal antibody CR57 (antibody, V domains shown)
VH: QVQLVQSGAEVKKPGSSVKVSCKASGGTFNRYTVNWVRQAPGQGLEWMGGIIPIFGTANYAQRFQGRLTITADESTSTAYMELSSLRSDDTAVYFCARENLDNSGTYYYFSGWFDPWGQGTLVTVSS
VL: QSALTQPRSVSGSPGQSVTISCTGTSSDIGGYNFVSWYQQHPGKAPKLMIYDATKRPSGVPDRFSGSKSGNTASLTISGLQAEDEADYYCCSYAGDYTPGVVFGGGTKLTVL
As to B1, the OD value in test [1] is 364.

B2: human monoclonal antibody CRJA (antibody, V domains shown)
VH: EVQLLESGGGLVQPGGSLRLSCAASGFTFSNYAMSWVRQAPGKGLEWVSAISASGHSTYLADSVKGRFTISRDNSKNTLYLQMNSLRAEDTAVYYCAKDREVTMIVVLNGGFDYWGQGTRVTVSS
VL: EIVLTQSPATLSLSPGERATLACRASQTASRYLAWYQQKPGQAPRLLIYDTSNRATGIPARFSGSGSGTDFTLSISSLEPEDFAVYYCQQRFNWPWTFGQGTKVEFK
Molecule B2 yielded an OD value in test [1] of 1030. Also, the OD in test [2] was found to be 96 OD.
